According to paper PMC3023227 (2010):
Where no end group is shown, it is not given here. [ ]: non-standard residue; d: D form. pY = N[C@@H](Cc1ccc(OP(=O)(O)O)cc1)C(=O)O

These binders were tested against GAPDH (Oryctolagus cuniculus, UniProt P46406) (assay: fluorescence titration).
Sequence of GAPDH (P46406 whole entry, the tested form may be a part): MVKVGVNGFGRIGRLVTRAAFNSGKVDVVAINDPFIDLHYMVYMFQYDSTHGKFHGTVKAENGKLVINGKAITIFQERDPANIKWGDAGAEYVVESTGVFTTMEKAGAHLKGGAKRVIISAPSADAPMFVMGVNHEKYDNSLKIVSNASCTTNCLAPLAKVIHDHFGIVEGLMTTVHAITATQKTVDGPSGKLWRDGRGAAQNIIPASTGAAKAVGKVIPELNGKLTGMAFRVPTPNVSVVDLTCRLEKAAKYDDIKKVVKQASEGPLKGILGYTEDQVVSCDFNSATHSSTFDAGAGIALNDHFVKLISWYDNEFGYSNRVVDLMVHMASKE
A Kd of 2600 nM was found for CLDADDAKATFDEEEGRDE[pY]DEVAMPV [AE1 C-terminal peptide AE1C-pY904] in this work. A Kd of 3200 nM was found for CLDADDAKATFDEEEGRDEYDEVAMPV [AE1 C-terminal peptide AE1C-Y904] in this work. A Kd of 2300 nM was found for LIFRNVELQCLDADDAKATFDEEEGRDEYDEVAMPV [AE1 C-terminal domain (AE1C-WT) 876-911] in this work.
